From patent publication US20230312742A1 (Y MABS THERAPEUTICS, published 2023)

B1: L1H1 (antibody, V domains shown)
VH: QVQLQESGPGLVKPSETLSLTCTVSGFSLTSYGVHWIRQPPGKGLEWIGVMWRGGSTDYNPSLKSRVTISKDNSKRQFSLKLSSVTAADTAVYYCAKSMITTGFVMDSWGQGTLVTVSS
VL: DIQMTQSPSSLSASVGDRVTITCRASEDIYNRLTWYQQKPGKAPKLLLSGATSLETGVPSRFSGSGSGKDYTLTISSLQPEDFATYYCQQYWSNPYTFGGGTKVEIK
notes: Humanized AT13/5 IgG, VL1 + VH1
B2: L2H7 (antibody, V domains shown)
VH: QVQLKQSGPGLVKPSETLSLTCTVSGFSLTSYGVHWIRQPPGKGLEWIGVMWRGGSTNYNPSLKSRLTISVDTSKNQFSLKLSSVTAADTAVYYCAKSMITTGFVMDSWGQGTLVTVSS
VL: DIQMTQSPSSLSASVGDRVTITCRASEDIYNRLAWYQQKPGKAPKLLLSGATSLETGVPSRFSGSGSGTDYTLTISSLQPEDFATYYCQQYWSNPYTFGGGTKVEIK
notes: Humanized AT13/5 IgG, VL2 + VH7
B3: L1H2 (antibody, V domains shown)
VH: QVQLQESGPGLVKPSETLSLTCTVSGFSLTSYGVHWVRQPPGKGLEWIGVMWRGGSTDYNPSLKSRVTISKDNSKRQFSLKMSSVTAADTAVYYCAKSMITTGFVMDSWGQGTLVTVSS
VL: DIQMTQSPSSLSASVGDRVTITCRASEDIYNRLTWYQQKPGKAPKLLLSGATSLETGVPSRFSGSGSGKDYTLTISSLQPEDFATYYCQQYWSNPYTFGGGTKVEIK
notes: Humanized AT13/5 IgG, VL1 + VH2
B4: L1H4 (antibody, V domains shown)
VH: QVQLQESGPGLVKPSETLSLTCTVSGFSLTSYGVHWIRQPPGKGLEWIGVMWRGGSTDYNPSLKSRVTISVDTSKRQVSLKLSSVTAADTAVYYCAKSMITTGFVMDSWGQGTLVTVSS
VL: DIQMTQSPSSLSASVGDRVTITCRASEDIYNRLTWYQQKPGKAPKLLLSGATSLETGVPSRFSGSGSGKDYTLTISSLQPEDFATYYCQQYWSNPYTFGGGTKVEIK
notes: Humanized AT13/5 IgG, VL1 + VH4
B5: L3H2 (antibody, V domains shown)
VH: QVQLQESGPGLVKPSETLSLTCTVSGFSLTSYGVHWVRQPPGKGLEWIGVMWRGGSTDYNPSLKSRVTISKDNSKRQFSLKMSSVTAADTAVYYCAKSMITTGFVMDSWGQGTLVTVSS
VL: DIQMTQSPSSLSASVGDRVTITCRASEDIYNRLTWYQQKPGKAPKLLLSGATSLETGVPSRFSGSGSGTDYTLTISSLQPEDFATYYCQQYWSNPYTFGGGTKVEIK
notes: Humanized AT13/5 IgG, VL3 + VH2
B6: L1H3 (antibody, V domains shown)
VH: QVQLQESGPGLVKPSETLSITCTVSGFSLTSYGVHWIRQPPGKGLEWIGVMWRGGSTDYNPSLKSRVTISKDTSKNQFSLKLSSLTAADTAVYYCAKSMITTGFVMDSWGQGTLVTVSS
VL: DIQMTQSPSSLSASVGDRVTITCRASEDIYNRLTWYQQKPGKAPKLLLSGATSLETGVPSRFSGSGSGKDYTLTISSLQPEDFATYYCQQYWSNPYTFGGGTKVEIK
notes: Humanized AT13/5 IgG, VL1 + VH3
B7: L1H6 (antibody, V domains shown)
VH: QVQLQESGPGLVKPSETLSLTCTVSGFSLTSYGVHWIRQPPGKGLEWLGVMWRGGSTNYNPSLKSRVTISKDTSKNQFSLKLSSVTAADTAVYYCAKSMITTGFVMDSWGQGTLVTVSS
VL: DIQMTQSPSSLSASVGDRVTITCRASEDIYNRLTWYQQKPGKAPKLLLSGATSLETGVPSRFSGSGSGKDYTLTISSLQPEDFATYYCQQYWSNPYTFGGGTKVEIK
notes: Humanized AT13/5 IgG, VL1 + VH6
B8: L2H1 (antibody, V domains shown)
VH: QVQLQESGPGLVKPSETLSLTCTVSGFSLTSYGVHWIRQPPGKGLEWIGVMWRGGSTDYNPSLKSRVTISKDNSKRQFSLKLSSVTAADTAVYYCAKSMITTGFVMDSWGQGTLVTVSS
VL: DIQMTQSPSSLSASVGDRVTITCRASEDIYNRLAWYQQKPGKAPKLLLSGATSLETGVPSRFSGSGSGTDYTLTISSLQPEDFATYYCQQYWSNPYTFGGGTKVEIK
notes: Humanized AT13/5 IgG, VL2 + VH1
B9: L1H7 (antibody, V domains shown)
VH: QVQLKQSGPGLVKPSETLSLTCTVSGFSLTSYGVHWIRQPPGKGLEWIGVMWRGGSTNYNPSLKSRLTISVDTSKNQFSLKLSSVTAADTAVYYCAKSMITTGFVMDSWGQGTLVTVSS
VL: DIQMTQSPSSLSASVGDRVTITCRASEDIYNRLTWYQQKPGKAPKLLLSGATSLETGVPSRFSGSGSGKDYTLTISSLQPEDFATYYCQQYWSNPYTFGGGTKVEIK
notes: Humanized AT13/5 IgG, VL1 + VH7
B10: L3H1 (antibody, V domains shown)
VH: QVQLQESGPGLVKPSETLSLTCTVSGFSLTSYGVHWIRQPPGKGLEWIGVMWRGGSTDYNPSLKSRVTISKDNSKRQFSLKLSSVTAADTAVYYCAKSMITTGFVMDSWGQGTLVTVSS
VL: DIQMTQSPSSLSASVGDRVTITCRASEDIYNRLTWYQQKPGKAPKLLLSGATSLETGVPSRFSGSGSGTDYTLTISSLQPEDFATYYCQQYWSNPYTFGGGTKVEIK
notes: Humanized AT13/5 IgG, VL3 + VH1
B11: L2H3 (antibody, V domains shown)
VH: QVQLQESGPGLVKPSETLSITCTVSGFSLTSYGVHWIRQPPGKGLEWIGVMWRGGSTDYNPSLKSRVTISKDTSKNQFSLKLSSLTAADTAVYYCAKSMITTGFVMDSWGQGTLVTVSS
VL: DIQMTQSPSSLSASVGDRVTITCRASEDIYNRLAWYQQKPGKAPKLLLSGATSLETGVPSRFSGSGSGTDYTLTISSLQPEDFATYYCQQYWSNPYTFGGGTKVEIK
notes: Humanized AT13/5 IgG, VL2 + VH3
B12: L3H4 (antibody, V domains shown)
VH: QVQLQESGPGLVKPSETLSLTCTVSGFSLTSYGVHWIRQPPGKGLEWIGVMWRGGSTDYNPSLKSRVTISVDTSKRQVSLKLSSVTAADTAVYYCAKSMITTGFVMDSWGQGTLVTVSS
VL: DIQMTQSPSSLSASVGDRVTITCRASEDIYNRLTWYQQKPGKAPKLLLSGATSLETGVPSRFSGSGSGTDYTLTISSLQPEDFATYYCQQYWSNPYTFGGGTKVEIK
notes: Humanized AT13/5 IgG, VL3 + VH4
B13: L2H6 (antibody, V domains shown)
VH: QVQLQESGPGLVKPSETLSLTCTVSGFSLTSYGVHWIRQPPGKGLEWLGVMWRGGSTNYNPSLKSRVTISKDTSKNQFSLKLSSVTAADTAVYYCAKSMITTGFVMDSWGQGTLVTVSS
VL: DIQMTQSPSSLSASVGDRVTITCRASEDIYNRLAWYQQKPGKAPKLLLSGATSLETGVPSRFSGSGSGTDYTLTISSLQPEDFATYYCQQYWSNPYTFGGGTKVEIK
notes: Humanized AT13/5 IgG, VL2 + VH6
B14: L2H2 (antibody, V domains shown)
VH: QVQLQESGPGLVKPSETLSLTCTVSGFSLTSYGVHWVRQPPGKGLEWIGVMWRGGSTDYNPSLKSRVTISKDNSKRQFSLKMSSVTAADTAVYYCAKSMITTGFVMDSWGQGTLVTVSS
VL: DIQMTQSPSSLSASVGDRVTITCRASEDIYNRLAWYQQKPGKAPKLLLSGATSLETGVPSRFSGSGSGTDYTLTISSLQPEDFATYYCQQYWSNPYTFGGGTKVEIK
notes: Humanized AT13/5 IgG, VL2 + VH2
B15: L1H5 (antibody, V domains shown)
VH: QVQLQESGPGLVKPSETLSLTCTVSGFSLTSYGVHWIRQPPGKGLEWIGVMWRGGSTDYNPSLKSRVTISVDTSKNQFSFKLSSVTAADTAIYYCAKSMITTGFVMDSWGQGTLVTVSS
VL: DIQMTQSPSSLSASVGDRVTITCRASEDIYNRLTWYQQKPGKAPKLLLSGATSLETGVPSRFSGSGSGKDYTLTISSLQPEDFATYYCQQYWSNPYTFGGGTKVEIK
notes: Humanized AT13/5 IgG, VL1 + VH5
B16: L3H3 (antibody, V domains shown)
VH: QVQLQESGPGLVKPSETLSITCTVSGFSLTSYGVHWIRQPPGKGLEWIGVMWRGGSTDYNPSLKSRVTISKDTSKNQFSLKLSSLTAADTAVYYCAKSMITTGFVMDSWGQGTLVTVSS
VL: DIQMTQSPSSLSASVGDRVTITCRASEDIYNRLTWYQQKPGKAPKLLLSGATSLETGVPSRFSGSGSGTDYTLTISSLQPEDFATYYCQQYWSNPYTFGGGTKVEIK
notes: Humanized AT13/5 IgG, VL3 + VH3

Target: human CD38 antigen (recombinant human CD38 protein) (human, UniProt P28907 43-300, limits assumed)
Experiment: SPR, IgG captured on anti-human Fc, human CD38 in solution;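 further: humanized IgG captured on an amine-coupled anti-human Fc HC30M chip, with human CD38 injected as a dilution series from 1000 nM downward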
Experimental: Surface Plasmon Resonance (SPR): To measure the binding affinity of the humanized IgG antibodies to their target antigen, an anti-human Fc surface was generated on a HC30M chip by amine coupling. The humanized IgG antibodies were diluted to either 10 μg/ml or 5 μg/ml and printed onto the anti-human Fc surface. Different dilutions of human CD38 antigen with a starting concentration of 1000 nM were prepared and flown over the surface.

Row | Binder | Kd [nM]
1 | B1 | 870
2 | B2 | 390
3 | B3 | 400
4 | B4 | 300
5 | B5 | 460
6 | B6 | 810
7 | B7 | 31
8 | B8 | 950
9 | B9 | 8500
10 | B10 | 650
11 | B11 | 830
12 | B12 | 1200
13 | B13 | 1900
14 | B14 | 910
15 | B15 | 1800
16 | B16 | 1200
